Values belong to the substance of their own block, whether it stands above or below them.
Assays:
[1] = tested on: T1, Factor VII (wild-type, single-chain zymogen)
T1 sequence: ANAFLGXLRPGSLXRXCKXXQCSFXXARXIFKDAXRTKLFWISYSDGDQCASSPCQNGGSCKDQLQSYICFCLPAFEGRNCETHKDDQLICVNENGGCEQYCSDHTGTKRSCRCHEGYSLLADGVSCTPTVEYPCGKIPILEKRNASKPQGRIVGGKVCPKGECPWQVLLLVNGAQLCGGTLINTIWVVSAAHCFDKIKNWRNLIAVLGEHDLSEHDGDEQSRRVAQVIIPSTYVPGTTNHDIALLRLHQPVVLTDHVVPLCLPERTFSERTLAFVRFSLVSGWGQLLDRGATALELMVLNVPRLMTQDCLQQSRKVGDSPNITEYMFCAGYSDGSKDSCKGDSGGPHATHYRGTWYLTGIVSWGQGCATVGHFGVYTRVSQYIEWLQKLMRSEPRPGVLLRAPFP

[2] = target: FVII_XHC: FVII with FX activation peptide inserted in the end of FVII heavy chain; assay: cell-based or functional assay

Substance: Factor IXa
- activation of FVII (cleavage to two chains) on reducing SDS-PAGE; 250 nM FIXa for 20 h [1]: completely activated under all described conditions

- time to complete activation, reducing SDS-PAGE, 80 nM FIXa [2]: 4 h
Substance: Factor IXa (from UniProt P00740 47-461) (enzyme)

Substance: Factor XIa
- activation of FVII (cleavage to two chains) on reducing SDS-PAGE; 75 nM FXIa for 2.5 h [1]: completely activated under all described conditions

Substance: Factor Xa
- activation of FVII (cleavage to two chains) on reducing SDS-PAGE; 100 nM FXa for 2 h [1]: completely activated under all described conditions
